Results on one substance are retold here after PMC4142212 (Nature, 2014).

Assay [1] addresses T1, ZMYND11 PBP (PHD-Bromo-PWWP, aa74-371) (Mus musculus, UniProt Q8R5C8).
T1 sequence (Q8R5C8 74-371): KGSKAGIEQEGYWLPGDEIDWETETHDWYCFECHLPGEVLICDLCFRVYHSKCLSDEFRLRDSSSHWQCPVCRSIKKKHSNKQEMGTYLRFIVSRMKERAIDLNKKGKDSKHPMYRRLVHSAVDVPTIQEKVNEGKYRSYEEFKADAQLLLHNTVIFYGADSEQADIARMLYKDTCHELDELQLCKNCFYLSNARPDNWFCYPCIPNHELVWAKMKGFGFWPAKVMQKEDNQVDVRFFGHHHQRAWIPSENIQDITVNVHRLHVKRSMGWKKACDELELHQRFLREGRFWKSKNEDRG
The assay is described as follows: ITC, ZMYND11 PBP domains. Conditions: n value fixed at 1. The assay is classed as binding.

In assay [2] the target is T2, ZMYND11 BP (Bromo-PWWP, 154-371) (Mus musculus, UniProt Q8R5C8).
T2 sequence (Q8R5C8 154-371): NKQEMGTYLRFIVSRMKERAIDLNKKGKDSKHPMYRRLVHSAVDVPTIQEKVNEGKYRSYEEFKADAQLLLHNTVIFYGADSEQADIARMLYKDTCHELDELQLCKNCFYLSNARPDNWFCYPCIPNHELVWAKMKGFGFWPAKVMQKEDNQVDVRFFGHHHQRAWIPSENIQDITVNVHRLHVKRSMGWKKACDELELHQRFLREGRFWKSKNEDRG
The assay is described as follows: ITC, ZMYND11 BP domains. The assay is classed as binding. The settings on record: n value fixed at 1. (In ITC the heat of successive injections is recorded.)

The next assay has as its system ZMYND11 PBP. Nature of the assay: Histone peptide pull-down, GST-ZMYND11 PBP. The assay is classed as binding, mouse. Conditions: mild buffer: 50 mM Tris-HCl 7.5, 200 mM NaCl, 0.05% NP-40, 1 mM PMSF.

“H3.1K36me3: synthetic histone H3.1_19-42K36me3 peptide”: the Titration c-value in assay [1] came to 0.16; in assay [2], 0.15. For the same substance, the “peptide pull-down binding, mild buffer” value in the assay on ZMYND11 PBP is given as “weak binding”.
